The data set concerns the molecule itself. Nature of the data set: native gel or EMSA. (In general: Mobility shift assays separate free from complexed probe on a gel.)

B1: polypyrimidine tract-binding protein 1 (PTBP1), wild type (natural protein)
chain: not shown
Turning to B1, the “stoichiometry N” value is 2.

Broadly, the stoichiometry N is a count of units in the complex or per binding partner.

The values are drawn from article PMC12632113 (Cell & Bioscience, 2025).
